Measurements as given in patent US12679878B2, “CRF2 receptor agonists and their use in therapy” (SANOFI, priority 2020, dated 2026).
Starred links: 1 amine or outer side, 2 acyl side, 3 side chain; linkers in the order of their positions; H or OH if unused. Non-standard residues stand in square brackets, D forms with d. Groups on a side chain read outwards from the residue. No end group written: not given here. *: point of attachment. C18 diacid = O=C(O)CCCCCCCCCCCCCCCCC(=O)*; γGlu = O=C(O)[C@H](CCC(=O)[*:2])N[*:1]; Palmitoyl = CCCCCCCCCCCCCCCC(=O)*; AEEA = NCCOCCOCC(=O)O; Aib = CC(C)(N)C(=O)O

B1: SEQ ID NO: 99 (peptide)
peptide: IVLSLDVPIKLK([AEEA-AEEA-γGlu-C18 diacid])KILLKQERQKK[Aib]REQAEKNKQILAQV-NH2
modifications: N-terminus assumed
SMILES: CC[C@H](C)[C@H](N)C(=O)N[C@H](C(=O)N[C@@H](CC(C)C)C(=O)N[C@@H](CO)C(=O)N[C@@H](CC(C)C)C(=O)N[C@@H](CC(=O)O)C(=O)N[C@H](C(=O)N1CCC[C@H]1C(=O)N[C@H](C(=O)N[C@@H](CCCCN)C(=O)N[C@@H](CC(C)C)C(=O)N[C@@H](CCCCNC(=O)COCCOCCNC(=O)COCCOCCNC(=O)CC[C@H](NC(=O)CCCCCCCCCCCCCCCCC(=O)O)C(=O)O)C(=O)N[C@@H](CCCCN)C(=O)N[C@H](C(=O)N[C@@H](CC(C)C)C(=O)N[C@@H](CC(C)C)C(=O)N[C@@H](CCCCN)C(=O)N[C@@H](CCC(N)=O)C(=O)N[C@@H](CCC(=O)O)C(=O)N[C@@H](CCCNC(=N)N)C(=O)N[C@@H](CCC(N)=O)C(=O)N[C@@H](CCCCN)C(=O)N[C@@H](CCCCN)C(=O)NC(C)(C)C(=O)N[C@@H](CCCNC(=N)N)C(=O)N[C@@H](CCC(=O)O)C(=O)N[C@@H](CCC(N)=O)C(=O)N[C@@H](C)C(=O)N[C@@H](CCC(=O)O)C(=O)N[C@@H](CCCCN)C(=O)N[C@@H](CC(N)=O)C(=O)N[C@@H](CCCCN)C(=O)N[C@@H](CCC(N)=O)C(=O)N[C@H](C(=O)N[C@@H](CC(C)C)C(=O)N[C@@H](C)C(=O)N[C@@H](CCC(N)=O)C(=O)N[C@H](C(N)=O)C(C)C)[C@@H](C)CC)[C@@H](C)CC)[C@@H](C)CC)C(C)C)C(C)C
B2: SEQ ID NO: 96 (peptide)
peptide: IVLSLDVPIKLK([AEEA-AEEA-γGlu-C18 diacid])QILLKQERQKKEREQAETNKQILAQV-NH2
modifications: N-terminus assumed
SMILES: CC[C@H](C)[C@H](N)C(=O)N[C@H](C(=O)N[C@@H](CC(C)C)C(=O)N[C@@H](CO)C(=O)N[C@@H](CC(C)C)C(=O)N[C@@H](CC(=O)O)C(=O)N[C@H](C(=O)N1CCC[C@H]1C(=O)N[C@H](C(=O)N[C@@H](CCCCN)C(=O)N[C@@H](CC(C)C)C(=O)N[C@@H](CCCCNC(=O)COCCOCCNC(=O)COCCOCCNC(=O)CC[C@H](NC(=O)CCCCCCCCCCCCCCCCC(=O)O)C(=O)O)C(=O)N[C@@H](CCC(N)=O)C(=O)N[C@H](C(=O)N[C@@H](CC(C)C)C(=O)N[C@@H](CC(C)C)C(=O)N[C@@H](CCCCN)C(=O)N[C@@H](CCC(N)=O)C(=O)N[C@@H](CCC(=O)O)C(=O)N[C@@H](CCCNC(=N)N)C(=O)N[C@@H](CCC(N)=O)C(=O)N[C@@H](CCCCN)C(=O)N[C@@H](CCCCN)C(=O)N[C@@H](CCC(=O)O)C(=O)N[C@@H](CCCNC(=N)N)C(=O)N[C@@H](CCC(=O)O)C(=O)N[C@@H](CCC(N)=O)C(=O)N[C@@H](C)C(=O)N[C@@H](CCC(=O)O)C(=O)N[C@H](C(=O)N[C@@H](CC(N)=O)C(=O)N[C@@H](CCCCN)C(=O)N[C@@H](CCC(N)=O)C(=O)N[C@H](C(=O)N[C@@H](CC(C)C)C(=O)N[C@@H](C)C(=O)N[C@@H](CCC(N)=O)C(=O)N[C@H](C(N)=O)C(C)C)[C@@H](C)CC)[C@@H](C)O)[C@@H](C)CC)[C@@H](C)CC)C(C)C)C(C)C
B3: SEQ ID NO: 101 (peptide)
peptide: IVLSLDVPIKLK([AEEA-AEEA-γGlu-C18 diacid])KILLKQERQKK[Aib]REQAETNKQILERV-NH2
modifications: N-terminus assumed
SMILES: CC[C@H](C)[C@H](N)C(=O)N[C@H](C(=O)N[C@@H](CC(C)C)C(=O)N[C@@H](CO)C(=O)N[C@@H](CC(C)C)C(=O)N[C@@H](CC(=O)O)C(=O)N[C@H](C(=O)N1CCC[C@H]1C(=O)N[C@H](C(=O)N[C@@H](CCCCN)C(=O)N[C@@H](CC(C)C)C(=O)N[C@@H](CCCCNC(=O)COCCOCCNC(=O)COCCOCCNC(=O)CC[C@H](NC(=O)CCCCCCCCCCCCCCCCC(=O)O)C(=O)O)C(=O)N[C@@H](CCCCN)C(=O)N[C@H](C(=O)N[C@@H](CC(C)C)C(=O)N[C@@H](CC(C)C)C(=O)N[C@@H](CCCCN)C(=O)N[C@@H](CCC(N)=O)C(=O)N[C@@H](CCC(=O)O)C(=O)N[C@@H](CCCNC(=N)N)C(=O)N[C@@H](CCC(N)=O)C(=O)N[C@@H](CCCCN)C(=O)N[C@@H](CCCCN)C(=O)NC(C)(C)C(=O)N[C@@H](CCCNC(=N)N)C(=O)N[C@@H](CCC(=O)O)C(=O)N[C@@H](CCC(N)=O)C(=O)N[C@@H](C)C(=O)N[C@@H](CCC(=O)O)C(=O)N[C@H](C(=O)N[C@@H](CC(N)=O)C(=O)N[C@@H](CCCCN)C(=O)N[C@@H](CCC(N)=O)C(=O)N[C@H](C(=O)N[C@@H](CC(C)C)C(=O)N[C@@H](CCC(=O)O)C(=O)N[C@@H](CCCNC(=N)N)C(=O)N[C@H](C(N)=O)C(C)C)[C@@H](C)CC)[C@@H](C)O)[C@@H](C)CC)[C@@H](C)CC)C(C)C)C(C)C
B4: SEQ ID NO: 97 (peptide)
peptide: IVLSLDVPIKLK([AEEA-AEEA-γGlu-C18 diacid])QKLLKQERQKKQREQAETNKQILAQV-NH2
modifications: N-terminus assumed
SMILES: CC[C@H](C)[C@H](N)C(=O)N[C@H](C(=O)N[C@@H](CC(C)C)C(=O)N[C@@H](CO)C(=O)N[C@@H](CC(C)C)C(=O)N[C@@H](CC(=O)O)C(=O)N[C@H](C(=O)N1CCC[C@H]1C(=O)N[C@H](C(=O)N[C@@H](CCCCN)C(=O)N[C@@H](CC(C)C)C(=O)N[C@@H](CCCCNC(=O)COCCOCCNC(=O)COCCOCCNC(=O)CC[C@H](NC(=O)CCCCCCCCCCCCCCCCC(=O)O)C(=O)O)C(=O)N[C@@H](CCC(N)=O)C(=O)N[C@@H](CCCCN)C(=O)N[C@@H](CC(C)C)C(=O)N[C@@H](CC(C)C)C(=O)N[C@@H](CCCCN)C(=O)N[C@@H](CCC(N)=O)C(=O)N[C@@H](CCC(=O)O)C(=O)N[C@@H](CCCNC(=N)N)C(=O)N[C@@H](CCC(N)=O)C(=O)N[C@@H](CCCCN)C(=O)N[C@@H](CCCCN)C(=O)N[C@@H](CCC(N)=O)C(=O)N[C@@H](CCCNC(=N)N)C(=O)N[C@@H](CCC(=O)O)C(=O)N[C@@H](CCC(N)=O)C(=O)N[C@@H](C)C(=O)N[C@@H](CCC(=O)O)C(=O)N[C@H](C(=O)N[C@@H](CC(N)=O)C(=O)N[C@@H](CCCCN)C(=O)N[C@@H](CCC(N)=O)C(=O)N[C@H](C(=O)N[C@@H](CC(C)C)C(=O)N[C@@H](C)C(=O)N[C@@H](CCC(N)=O)C(=O)N[C@H](C(N)=O)C(C)C)[C@@H](C)CC)[C@@H](C)O)[C@@H](C)CC)C(C)C)C(C)C
B5: SEQ ID NO: 100 (peptide)
peptide: IVLSLDVPIKLK([AEEA-AEEA-γGlu-C18 diacid])KILLKQERQKK[Aib]REQAETN[Aib]QILAQV-NH2
modifications: N-terminus assumed
SMILES: CC[C@H](C)[C@H](N)C(=O)N[C@H](C(=O)N[C@@H](CC(C)C)C(=O)N[C@@H](CO)C(=O)N[C@@H](CC(C)C)C(=O)N[C@@H](CC(=O)O)C(=O)N[C@H](C(=O)N1CCC[C@H]1C(=O)N[C@H](C(=O)N[C@@H](CCCCN)C(=O)N[C@@H](CC(C)C)C(=O)N[C@@H](CCCCNC(=O)COCCOCCNC(=O)COCCOCCNC(=O)CC[C@H](NC(=O)CCCCCCCCCCCCCCCCC(=O)O)C(=O)O)C(=O)N[C@@H](CCCCN)C(=O)N[C@H](C(=O)N[C@@H](CC(C)C)C(=O)N[C@@H](CC(C)C)C(=O)N[C@@H](CCCCN)C(=O)N[C@@H](CCC(N)=O)C(=O)N[C@@H](CCC(=O)O)C(=O)N[C@@H](CCCNC(=N)N)C(=O)N[C@@H](CCC(N)=O)C(=O)N[C@@H](CCCCN)C(=O)N[C@@H](CCCCN)C(=O)NC(C)(C)C(=O)N[C@@H](CCCNC(=N)N)C(=O)N[C@@H](CCC(=O)O)C(=O)N[C@@H](CCC(N)=O)C(=O)N[C@@H](C)C(=O)N[C@@H](CCC(=O)O)C(=O)N[C@H](C(=O)N[C@@H](CC(N)=O)C(=O)NC(C)(C)C(=O)N[C@@H](CCC(N)=O)C(=O)N[C@H](C(=O)N[C@@H](CC(C)C)C(=O)N[C@@H](C)C(=O)N[C@@H](CCC(N)=O)C(=O)N[C@H](C(N)=O)C(C)C)[C@@H](C)CC)[C@@H](C)O)[C@@H](C)CC)[C@@H](C)CC)C(C)C)C(C)C
B6: SEQ ID NO: 98 (peptide)
peptide: IVLSLDVPIKLK([AEEA-AEEA-γGlu-C18 diacid])QKLLKQERQKK[Aib]REQAETNKQILAQV-NH2
modifications: N-terminus assumed
SMILES: CC[C@H](C)[C@H](N)C(=O)N[C@H](C(=O)N[C@@H](CC(C)C)C(=O)N[C@@H](CO)C(=O)N[C@@H](CC(C)C)C(=O)N[C@@H](CC(=O)O)C(=O)N[C@H](C(=O)N1CCC[C@H]1C(=O)N[C@H](C(=O)N[C@@H](CCCCN)C(=O)N[C@@H](CC(C)C)C(=O)N[C@@H](CCCCNC(=O)COCCOCCNC(=O)COCCOCCNC(=O)CC[C@H](NC(=O)CCCCCCCCCCCCCCCCC(=O)O)C(=O)O)C(=O)N[C@@H](CCC(N)=O)C(=O)N[C@@H](CCCCN)C(=O)N[C@@H](CC(C)C)C(=O)N[C@@H](CC(C)C)C(=O)N[C@@H](CCCCN)C(=O)N[C@@H](CCC(N)=O)C(=O)N[C@@H](CCC(=O)O)C(=O)N[C@@H](CCCNC(=N)N)C(=O)N[C@@H](CCC(N)=O)C(=O)N[C@@H](CCCCN)C(=O)N[C@@H](CCCCN)C(=O)NC(C)(C)C(=O)N[C@@H](CCCNC(=N)N)C(=O)N[C@@H](CCC(=O)O)C(=O)N[C@@H](CCC(N)=O)C(=O)N[C@@H](C)C(=O)N[C@@H](CCC(=O)O)C(=O)N[C@H](C(=O)N[C@@H](CC(N)=O)C(=O)N[C@@H](CCCCN)C(=O)N[C@@H](CCC(N)=O)C(=O)N[C@H](C(=O)N[C@@H](CC(C)C)C(=O)N[C@@H](C)C(=O)N[C@@H](CCC(N)=O)C(=O)N[C@H](C(N)=O)C(C)C)[C@@H](C)CC)[C@@H](C)O)[C@@H](C)CC)C(C)C)C(C)C

molecular target: human corticotropin-releasing factor 2α (CRF2 α receptor) (human), Q13324; assay: cell-based or functional assay
Sequence (Q13324 20-411): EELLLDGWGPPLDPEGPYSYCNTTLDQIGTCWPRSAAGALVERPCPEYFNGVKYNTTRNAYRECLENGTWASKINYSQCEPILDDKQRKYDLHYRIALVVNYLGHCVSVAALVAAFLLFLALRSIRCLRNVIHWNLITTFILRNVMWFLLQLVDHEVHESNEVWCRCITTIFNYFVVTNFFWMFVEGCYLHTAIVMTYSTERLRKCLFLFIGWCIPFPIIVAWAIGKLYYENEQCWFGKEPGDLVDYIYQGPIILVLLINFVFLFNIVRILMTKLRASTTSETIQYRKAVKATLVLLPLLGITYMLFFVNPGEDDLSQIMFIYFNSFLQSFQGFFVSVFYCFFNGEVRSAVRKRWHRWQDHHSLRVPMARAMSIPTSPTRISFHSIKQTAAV

| EC50 [nM], 0% HSA | EC50 [nM], 0.1% HSA | Binder |
| --- | --- | --- |
| 0.02 nM | 0.03 nM | IVLSLD[dV]PTKLK([γGlu-Palmitoyl])QKLLKQERQRKEREQAEKNARILARV-NH2 [SEQ ID NO: 7] |
| 0.06 nM | 1.6 nM | B1 |
| 0.38 nM |  | B2 |
| 0.11 nM | 4.28 nM | B3 |
| 1.66 nM |  | B4 |
| 0.51 nM | 20.5 nM | B5 |
| 2.36 nM |  | B6 |
